# Assays:
# Conditions in all cases: tags: endogenous on Ramos Burkitt's lymphoma cells; label: 5' FITC or Cy3; stem-loop hairpin
# [1] = molecular target: T1, membrane-bound IgM (mIgM, immunoglobulin heavy mu chain of B-cell receptor) (Homo sapiens, UniProt P01871 P01871:1-474); assay: flow; Bmax/2 on Ramos cells, 4 C, 5 mM MgCl2
# Protocol: (§1) All the in vitro experiments were done using a binding buffer composed of RPMI 1640 and 4.5 g/L glucose (Sigma-Aldrich) and 5 mM MgCl₂ for monomers, 20 mM MgCl₂ for multimers (Sigma-Aldrich), 100 mg/L tRNA (Sigma-Aldrich), 100 mg/L single stranded DNA (Sigma-Aldrich), 100 mg/L BSA (Sigma-Aldrich) and binding was analyzed for binding using flow cytometry in binding buffer (Acurri C6) using binding buffer. We used 20 mM Mg⁺² for optimal for the folding of the aptamer in vitro and 5 mM Mg⁺² for experiments in vivo. The binding buffer consists of tRNA and single stranded DNA that are capable of scavenging Mg⁺² thereby reducing the effective concentration of Mg ions. […]
# (§2) Cell Binding Assays. Affinity of each construct was evaluated by incubating Ramos cells (2.5×10⁵) with a series of FITC or Cy3 labeled constructs in a 50 μL of binding buffer on ice for 45 min Cells were then washed with lmL of wash buffer at 4° C. and resuspended in 100 μL of wash buffer. The binding of the constructs was analyzed using flow cytometry by counting 10,000 events for each concentration. […] Binding at respective concentrations and absolute fluorescence intensity difference was used for the binding curves. When calculating the relative binding constant, binding curves were fitted with median fluorescence intensity observed for each histogram and observed Bmax/2 was used as the binding constant. […]
# [2] = molecular target: T1, membrane-bound IgM (mIgM, …); assay: flow; Bmax/2 on Ramos cells, 4 C
# Protocol: as §1, §2
# [3] = molecular target: T1, membrane-bound IgM (mIgM, …); assay: flow; Bmax/2 (Kd') on Ramos cells, 4 C, 5 mM MgCl2
# Protocol: as §1, §2
# T1 sequence (P01871 whole entry, one chain of several): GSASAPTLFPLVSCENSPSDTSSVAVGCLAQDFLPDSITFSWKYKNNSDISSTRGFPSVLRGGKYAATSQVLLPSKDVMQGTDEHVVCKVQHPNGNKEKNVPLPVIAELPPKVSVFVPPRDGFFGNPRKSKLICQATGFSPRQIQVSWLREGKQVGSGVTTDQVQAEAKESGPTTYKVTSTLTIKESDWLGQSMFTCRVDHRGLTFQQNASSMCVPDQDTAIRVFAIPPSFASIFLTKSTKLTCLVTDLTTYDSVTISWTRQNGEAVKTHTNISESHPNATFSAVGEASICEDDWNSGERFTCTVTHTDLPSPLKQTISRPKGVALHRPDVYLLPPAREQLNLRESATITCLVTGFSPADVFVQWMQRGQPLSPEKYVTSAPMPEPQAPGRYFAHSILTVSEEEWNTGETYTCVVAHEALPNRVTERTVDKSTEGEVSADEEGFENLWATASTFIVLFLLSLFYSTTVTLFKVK
Binder,Kd [1] [nM],other results
AGGAGGATAGTTCGGTGGCTGTTCAGGGTCTCCTCCT (ssDNA) [TD05.1],53,
"AGGAGGATAGTTCGGTGGCTGTTCAGGGTCTCCTCCT (ssDNA, LNA at last four nucleotides (3' stem pyrimidines TCCT) [34,35,36,37 (LNA)]) [TD05.17]",,Kd [2]: 43 nM
ACCGTGGAGGATAGTTCGGTGGCTGTTCAGGGTCTCCTCCACGGT (ssDNA) [TD05],,Kd [3]: 359 nM
CGTGGAGGATAGTTCGGTGGCTTCAGGGTCTCCTCCCG (ssDNA) [TD05.7],148,

# From US20120225088, “COMPOSITIONS AND METHODS FOR TREATING CANCER AND OTHER DISEASES” (published 2012)
